Measurements: patent publication US20220193204A1 (BAYLOR COLLEGE OF MEDICINE, published 2022)
Positions count from the first letter of the chain named. Names and notes keep the numbering of the source.

B1: recombinant A2 domain of human von Willebrand factor (WT A2 protein) (other)
chain: GLLGVSTLGPKRNSMVLDVAFVLEGSDKIGEADFNRSKEFMEEVIQRMDVGQDSIHVTVLQYSYMVTVEYPFSEAQSKGDILQRVREIRYQGGNRTNTGLALRYLSDHSFLVSQGDREQAPNLVYMVTGNPASDEIKRLPGDIQVVPIGVGPNANVQELERIGWPNAPILIQDFETLPREAPDLVLQR
modifications: conjugated to Alexa Fluor 488 in the confocal microscopy experiments only
notes: not shown: histidine tag (vector pQE-9/VWF-A2)
B2: recombinant A2 (E1567A) mutant of the A2 domain of human von Willebrand factor (other)
chain: B1 chain with E87A
notes: also called A2 mutant; A2 mutant protein; not shown: Histidine tag from the pQE-9 vector

How the values were obtained:
[1] = target: recombinant SARS-CoV-2 spike protein (S) (SARS-CoV-2, UniProt P0DTC2 16-1213)
[2] = target: recombinant human vimentin (human, UniProt P08670 2-466, limits assumed); experiment: ELISA: increasing concentrations of A2 variant on recombinant human vimentin, bound A2 detected with anti-A2 antibody and a secondary HRP conjugate
Sequence of recombinant human vimentin (P08670 2-466 limits assumed): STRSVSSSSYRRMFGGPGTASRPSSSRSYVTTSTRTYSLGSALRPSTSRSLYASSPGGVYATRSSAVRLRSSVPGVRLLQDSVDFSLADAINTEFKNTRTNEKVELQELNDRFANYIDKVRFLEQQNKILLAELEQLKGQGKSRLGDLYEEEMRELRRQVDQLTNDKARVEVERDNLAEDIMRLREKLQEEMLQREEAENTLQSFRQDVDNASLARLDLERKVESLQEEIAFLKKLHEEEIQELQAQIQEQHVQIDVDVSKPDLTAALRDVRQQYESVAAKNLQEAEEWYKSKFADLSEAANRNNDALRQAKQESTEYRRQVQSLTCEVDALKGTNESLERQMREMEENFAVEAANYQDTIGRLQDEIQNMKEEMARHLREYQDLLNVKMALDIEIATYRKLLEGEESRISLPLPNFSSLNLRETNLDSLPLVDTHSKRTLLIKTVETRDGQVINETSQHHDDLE

Binder | binding result [1] | EC50 (read off the curve) [2] [nM]
B1 | no binding | ~40
B2 | – | ~70
